This assay deals with IL-10Rα receptor on MC/9 mouse mast cells (mouse) (UniProt Q61727). The experiment in a line: cell-based or functional assay.
Sequence of UniProt Q61727 (Q61727 17-575): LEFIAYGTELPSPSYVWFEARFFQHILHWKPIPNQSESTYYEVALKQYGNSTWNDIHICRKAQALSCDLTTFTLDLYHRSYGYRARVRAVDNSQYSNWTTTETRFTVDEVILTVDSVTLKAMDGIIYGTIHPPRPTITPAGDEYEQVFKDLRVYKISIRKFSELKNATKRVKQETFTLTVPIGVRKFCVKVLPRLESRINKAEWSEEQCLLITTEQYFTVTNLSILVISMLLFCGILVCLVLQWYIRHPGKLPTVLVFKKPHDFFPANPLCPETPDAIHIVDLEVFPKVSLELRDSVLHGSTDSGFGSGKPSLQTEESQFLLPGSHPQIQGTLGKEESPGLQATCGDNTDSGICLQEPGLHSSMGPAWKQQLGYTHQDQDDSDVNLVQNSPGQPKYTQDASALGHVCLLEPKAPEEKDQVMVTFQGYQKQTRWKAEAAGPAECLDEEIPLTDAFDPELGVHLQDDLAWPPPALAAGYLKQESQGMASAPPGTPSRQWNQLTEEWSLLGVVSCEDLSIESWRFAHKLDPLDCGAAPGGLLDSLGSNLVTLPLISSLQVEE

Regarding “recombinant human IL-10 (Peprotech catalog number 200-10) (from UniProt P22301 19-178) (ligand)”, the half maximal effective concentration (EC50), proliferation of MC/9 cells in the presence of IL4 (Alamar Blue) was determined as 0.0917 nM.

The record behind these values is patent US20240034764A1.
